The results in this text go back to patent US10874712B2, “Methods, compounds and compositions for modulating blood brain barrier integrity and re-myelination” (University Health Network, priority 2015, dated 2020).

One assay has as its system rats subjected to MCAO. In words: MCAO, neurological deficit (Bederson test). It counts as in vivo, rat. The conditions noted are these: tail-vein injection of 70 μg, 7 day period, vs PBS. As to the method:
In a separate experiment, whether RGMc treatment, which prevents BBB disruption following stroke, could lead to functional recovery (FIG. 25) was studied. Rats were subjected to MCAO and treated with either tail-vein injection of 70 μg of RGMc or control (PBS).

Another assay concerns b.end3 cells. Briefly: In vitro BBB permeability, Dextran-FITC extravasation in Boyden chamber. It counts as cell-based, mouse. As to conditions: b.end3 monolayer; 4 h pre-treatment (10 μg/mL sRGMc, 10 μg/mL C3 Transferase or 10 μM Y27632), then RGMa 18 h. As to the method: (A) Neogenin expression was analyzed on the membrane of b.end3 cells using immunohistochemical staining and by Western blot. (B) Crystal violet staining showing the b.end3 cell monolayer, (C) Representative diagram of the boyden chamber set up and (D) BBB permeability in b.end3 cells. Serum-starved cells were incubated for 4 h with RGMa (10 μg/ml), C3 Transferase (10 μg/mL) or Y27632 (10 μM) or sRGMc (10 μg/mL) and were then incubated with sRGMa (5 μg/mL) for 18 h followed by seeding of Dextran-FITC onto the upper chamber. Extravasation was measured over a period of 60 min as described in the Examples. n=3, performed in triplicates.
b.End3 endothelial cells were used to generate an in vitro model of the human EC barrier lining the choroid plexus. Briefly, b.end3 cells were plated on polyethylene-coated 0.4 μm pore size Boyden chambers (Corning) at a density of 2×10^5 cells per well in DMEM, and were allowed to grow for 72 h to reach confluency (verified using crystal violet staining). After 72 h, cells were serum starved for 6 h and pre-treated for 4 h with 10 μg/mL sRGMc, 10 μg/mL C3 Transferase or 10 μM Y27632. RGMa was then added to the wells for 18 h. The transwells were then transferred to a new plate containing 500 μl of HBSS and 200 μl 4-KDa Dextran-FITC (25 mg/ml; Sigma-Aldrich) was added to the upper chambers. Tracer diffusion across the EC monolayer was assessed in 30 min intervals for a period of 1.5 h. FITC signal, which represented the amount of extravasation through the monolayer was analyzed with using a microplate reader.

The subject of the next assay is EAE-induced mice. Briefly: Histological staining (H&E, Luxol Fast Blue) of cervical spinal cord, inflammatory index. Type of assay: in vivo, mouse. As to conditions: EAE day 18; vs vehicle. As to the method: At day 18 post-EAE induction, mice were trans-cardially perfused with 20 mL PBS followed by 20 mL 4% paraformaldehyde in PBS (PFA) (Electron Microscopy Sciences) and 30 μm spinal cord cryosections were stained. The slides were washed in PBS for 3 min, followed by a 30 s wash in 50% ethanol (EtOH) and incubated overnight in Luxol Fast Blue (LFB) at 60° C. The sections were washed in 95% EtOH for 5 min, distilled water for 5 min prior to de-staining with […] for 10 min, and were then washed in 70% EtOH for 30 s, 5 min in MilliQ H2O, and sections were immersed in Harris Hematoxylin (Sigma-Aldrich) for 20 min and were rinsed in warm water to remove excess stain. Samples were dehydrated in 95% EtOH, immersed in alcoholic eosin Y (Sigma-Aldrich) for 15 s, dehydrated twice in 95% EtOH for 5 min, 100% EtOH for 5 min and xylene for 5 min. Slides were mounted with Permount (Fisher Scientific) and air-dried overnight at room temperature. Luxol Fast Blue (LFB) staining was quantified using relative staining intensity using Image J software. All intensities were normalized to a sham mouse spinal cord.
Cellular infiltration was quantified using an inflammatory index: 0, no inflammation; 1, cellular infiltration only in the perivascular areas and meninges; 2, mild cellular infiltration in the parenchyma (<10 cells); 3, moderate cellular infiltration in the parenchyma (10-49 cells); 4, moderate cellular infiltration in the parenchyma (50-99 cells); and 5, severe cellular infiltration in parenchyma (>100 cells).

The test system of assay [1] is MOG(35-55)-pulsed splenocytes of EAE-induced mice. Briefly: MOG-specific cytokine expression, secretion and proliferation of splenocytes. Type of assay: in vivo, mouse. The protocol: Mice were sacrificed on day 10 post-induction and single cells suspension of splenocytes were harvested as described above. Cells (1×10^6) were cultured in 10% FBS RPMI-1640 in the presence of 0 μg/mL, 30 μg/mL, or 100 μg/mL of MOG peptide for 15 h. Cells were then treated with GolgiStop (BD Biosciences) and incubated an additional 3 h and were subsequently stained.
Plates were centrifuged at 1800 rpm for 5 min and the media was then harvested and stored at −80 C until analysis. Cytokine secretion of IL-17a, IL-6, TNF-α, and IFN-γ were assessed using the BD cytometric Bead Array (CBA) (BD Biosciences) according to the manufacturer's guidelines. Splenocyte proliferation was determined using CellTrace™ CFSE Cell Proliferation Kit for flow cytometry (Life Technologies) according to manufacturer's instructions. Briefly, 1×10^6 cells were suspended in warm PBS/0.1% BSA and stained with CFSE solution at a final concentration of 5 μM and incubated at 37° C. for 10 min. The staining was quenched using 5 volumes of ice-cold culture media, incubated for 5 min on ice, centrifuged at 700 rcf for 5 min, washed twice using culture medium, and re-suspended in 10% FBS complete RPMI-1640. Cells were then cultured in 0 μg/mL or 30 μg/mL of MOG(35-55) peptide for 72 h at 37° C., 5% CO2. […] Proliferation was analyzed by flow cytometry following staining in the presence of PI.

B1: sRGMc: truncated form of RGMc with the GPI anchor sequence removed, released as a soluble protein (SEQ ID NOs: 1 and 3) (protein, listed as Homo sapiens)
chain: CKILRCNAEYVSSTLSLRGGGSSGALRGGGGGGRGGGVGSGGLCRALRSYALCTRRTARTCRGDLAFHSAVHGIEDLMIQHNCSRQGPTAPPPPRGPALPGAGSGLPAPDPCDYEGRFSRLHGRPPGFLHCASFGDPHVRSFHHHFHTCRVQGAWPLLDNDFLFVQATSSPMALGANATATRKLTIIFKNMQECIDQKVYQAEVDNLPVAFEDGSINGGDRPGGSSLSIQTANPGNHVEIQAAYIGTTIIIRQTAGQLSFSIKVAEDVAMAFSAEQDLQLCVGGCPPSQRLSRSERNRRGAITIDTARRLCKEGLPVEDAYFHSCVFDVLISGDPNFTVAAQAALEDARAFLPDLEKLH
Turning to B1, the “functional scores (Bederson test)” value in the assay with rats subjected to MCAO is reported as “significant (*p<0.05) improvement of functional scores”. The “extravasation of Dextran-FITC in sRGMa-treated cells” value with b.end3 cells is listed as “reproduced the RhoA/RhoK inhibitor effect”. Moreover, in the assay with EAE-induced mice, the “extent of cellular infiltrates in cervical spinal cord” value is “significantly reduced”, the “extent of de-myelination (Luxol Fast Blue)” value is “significantly reduced” and the inflammatory index score result is “significantly lower”. Also, in assay [1] (pulsed with MOG for 96 h, ELISA, vs vehicle), the “cytokine secretion (IL17, IFN-γ, TNFα, IL6) of MOG-pulsed splenocytes” value was “does not alter”. Also, the “cytokine profile of splenocytes re-stimulated with MOG(35-55)” value in assay [1] (re-stimulated for 18 hrs, vs control mice) is recorded as “no apparent effect”.
